US20160264663A1 (published 2016)

What was measured:
human podocalyxin [1] = target: T1, human podocalyxin (human); assay: flow cytometry, control, neat, MDA-MB-231 cells
T1 chain: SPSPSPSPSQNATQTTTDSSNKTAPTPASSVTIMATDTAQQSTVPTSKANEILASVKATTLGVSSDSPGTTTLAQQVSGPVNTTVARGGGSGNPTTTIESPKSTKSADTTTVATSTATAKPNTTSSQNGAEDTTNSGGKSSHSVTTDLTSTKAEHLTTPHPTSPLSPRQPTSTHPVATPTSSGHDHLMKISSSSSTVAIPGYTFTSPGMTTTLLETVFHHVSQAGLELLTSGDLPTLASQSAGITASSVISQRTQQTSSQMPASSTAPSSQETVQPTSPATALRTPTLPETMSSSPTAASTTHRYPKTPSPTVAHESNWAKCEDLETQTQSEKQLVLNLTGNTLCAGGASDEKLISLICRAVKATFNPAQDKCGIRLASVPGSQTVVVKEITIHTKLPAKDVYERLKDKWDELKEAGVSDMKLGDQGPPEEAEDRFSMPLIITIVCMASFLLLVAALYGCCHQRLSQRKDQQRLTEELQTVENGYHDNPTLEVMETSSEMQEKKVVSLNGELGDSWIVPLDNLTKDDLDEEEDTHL

human podocalyxin [2] = target: T1, human podocalyxin; assay: flow cytometry, control, 1:5, hPodo/MDA-MB-231 transient transfectants
human podocalyxin [3] = target: T1, human podocalyxin; assay: flow cytometry, control, 1:125, MDA-MB-231 cells
human podocalyxin [4] = target: T1, human podocalyxin; assay: flow cytometry, control, 1:5, MDA-MB-231 cells
human podocalyxin [5] = target: T1, human podocalyxin; assay: flow cytometry, control, 2:15 (so in the source), hPodo/MDA-MB-231 transient transfectants
human podocalyxin [6] = target: T1, human podocalyxin; assay: flow cytometry, control, 1:125, hPodo/MDA-MB-231 transient transfectants
human podocalyxin [7] = target: T1, human podocalyxin; assay: flow cytometry, control, 2:15 (so in the source), MDA-MB-231 cells
human podocalyxin [8] = target: T1, human podocalyxin; assay: flow cytometry, control, neat, hPodo/MDA-MB-231 transient transfectants

Rb IgG (antibody) gave an FACS signal (name not given) (human podocalyxin [1]) of 574, an FACS signal (name not given) (human podocalyxin [2]) of 660 and an FACS signal (name not given) (human podocalyxin [3]) of 431. It also gave an FACS signal (name not given) (human podocalyxin [4]) of 467, an FACS signal (name not given) (human podocalyxin [5]) of 617 and an FACS signal (name not given) (human podocalyxin [6]) of 645. For the same substance, the FACS signal (name not given) (human podocalyxin [7]) was 438 and the FACS signal (name not given) (human podocalyxin [8]) was 762.
